Measured values from IntAct's records for PubMed 35266954.

Key:
[1] = target: trim1_human MID2 (UniProt Q9UJV3)
[2] = target: 1433t_human YWHAQ (UniProt P27348)
UniProt P27348, sequence (P27348 whole entry): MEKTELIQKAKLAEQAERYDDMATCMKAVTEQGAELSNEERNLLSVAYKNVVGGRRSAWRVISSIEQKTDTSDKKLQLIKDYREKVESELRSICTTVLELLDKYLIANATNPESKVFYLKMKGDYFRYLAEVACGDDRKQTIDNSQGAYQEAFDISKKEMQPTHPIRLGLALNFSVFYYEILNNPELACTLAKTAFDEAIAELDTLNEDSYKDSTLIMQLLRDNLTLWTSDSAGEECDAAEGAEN

UniProt Q9UJV3, sequence (Q9UJV3 whole entry): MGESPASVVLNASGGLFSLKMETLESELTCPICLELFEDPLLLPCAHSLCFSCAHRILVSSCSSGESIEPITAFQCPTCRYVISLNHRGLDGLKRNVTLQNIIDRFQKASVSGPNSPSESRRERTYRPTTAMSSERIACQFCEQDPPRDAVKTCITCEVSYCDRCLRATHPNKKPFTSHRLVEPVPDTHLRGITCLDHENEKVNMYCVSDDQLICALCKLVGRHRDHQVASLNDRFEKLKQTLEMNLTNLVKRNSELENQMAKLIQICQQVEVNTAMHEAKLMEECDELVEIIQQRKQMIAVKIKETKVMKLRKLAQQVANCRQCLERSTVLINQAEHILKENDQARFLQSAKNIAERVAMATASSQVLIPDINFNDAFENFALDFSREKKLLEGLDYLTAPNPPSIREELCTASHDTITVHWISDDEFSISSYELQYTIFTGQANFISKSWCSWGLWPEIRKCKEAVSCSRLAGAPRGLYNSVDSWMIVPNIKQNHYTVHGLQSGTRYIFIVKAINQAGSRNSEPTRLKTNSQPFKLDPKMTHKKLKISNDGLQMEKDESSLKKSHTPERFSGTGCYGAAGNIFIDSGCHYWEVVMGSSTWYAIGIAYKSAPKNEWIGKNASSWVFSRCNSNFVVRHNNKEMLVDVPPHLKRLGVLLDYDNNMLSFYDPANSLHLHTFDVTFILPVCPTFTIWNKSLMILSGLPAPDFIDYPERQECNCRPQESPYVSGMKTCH

Row | Substance | effect of a mutation on the interaction [1] | effect of a mutation on the interaction [2]
1 | Leucine-rich repeat serine/threonine-protein kinase 2 (Homo sapiens), Q5S007 G2019S | with no effect | 
2 | Leucine-rich repeat serine/threonine-protein kinase 2 (Homo sapiens), Q5S007 R1441C |  | disrupting interaction strength
3 | Leucine-rich repeat serine/threonine-protein kinase 2 (Homo sapiens), Q5S007 S910A;S935A |  | disrupting interaction strength
4 | Leucine-rich repeat serine/threonine-protein kinase 2 (Homo sapiens), Q5S007 S910D;S935D |  | disrupting interaction strength
